Patent US20250179176A1, “ANTI-TIGIT ANTIBODIES AND USES OF THE SAME” (ARCUS BIOSCIENCES, INC., priority 2022, published 2025)

Test: Pharmacokinetics of domvanalimab in humans
Type: in vivo, human
Details: Q2W
Source text: The present example illustrates the pharmacokinetics of domvanalimab in human subjects. […] Subjects had ≥1 measurable lesion per RECIST v1.1 and ECOG performance status score 0-1.
Examination of the mean PK plots indicated similar PK across the dosing regimens.

[1] = first cycle, over 20-fold dose range 0.5-10 mg/kg

B1: domvanalimab: anti-TIGIT antibody with engineered IgG1 Fc, reduced FcγR binding; heavy chain SEQ ID NO: 12, light chain SEQ ID NO: 13 (antibody)
heavy: EVQLVESGGGLVQPGGSLRLSCAASGFTFSNFGMHWVRQAPGKGLEWVAFISSGSSSIYYADTVKGRFTISRDNAKNSLYLQMNSLRAEDTAVYYCARMRLDYYAMDYWGQGTMVTVSSASTKGPSVFPLAPSSKSTSGGTAALGCLVKDYFPEPVTVSWNSGALTSGVHTFPAVLQSSGLYSLSSVVTVPSSSLGTQTYICNVNHKPSNTKVDKKVEPKSCDKTHTCPPCPAPEAAGGPSVFLFPPKPKDTLMISRTPEVTCWVDVSHEDPEVKFNWYVDGVEVHNAKTKPREEQYNSTYRWSVLTVLHQDWLNGKEYKCKVSNKALPAPIEKTISKAKGQPREPQVYTLPPSRDELTKNQVSLTCLVKGFYPSDIAVEWESNGQPENNYKTTPPVLDSDGSFFLYSKLTVDKSRWQQGNVFSCSVMHEALHNHYTQKSLSLSPGK
light: DIQMTQSPSSLSASVGDRVTITCRASKSISKYLAWYQQKPGKAPKLLIYSGSTLQSGVPSRFSGSGSGTDFTLTISSLQPEDFATYYCQQHNEYPWTFGGGTKVEIKRTVAAPSVFIFPPSDEQLKSGTASWCLLNNFYPREAKVQWKVDNALQSGNSQESVTEQDSKDSTYSLSSTLTLSKADYEKHKVYACEVTHQGLSSPVTKSFNRGEC
For B1, which “dose proportionality of PK” value (0.5-10 mg/kg) is on record?
Its value is “roughly dose proportional”.

What about the “increase of concentration at end of infusion (Ceoinf)” value [1] of the same molecule?
Its value is 15 fold.

What about the “increase of concentration at the end of the dosing interval (Ctrough)” value [1] of the same molecule?
The value was 27 fold.

What about the “increase of mean area under the concentration time curve over the first dosage interval” value [1] of the same molecule?
The value was 17 fold.
